From US8258279B2, “Isolated nucleic acids encoding soluble corticotropin releasing factor receptor type 2 (sCRFR2) polypeptides” (Research Development Foundation, priority 2005, dated 2012)
“Also recorded” adds a separate entry of the source.

B1: sCRFR2α: 143 amino acid soluble splice variant of mouse CRF receptor type 2α lacking exon six (protein)
chain: MDAALLLSLLEAQLQPGAGRRAAPGRLGSAPGPRRSLHLLQHDLGPDRDLLATERTRSPSRETVPRVLQWHQVQHDPECLQRVPGERDLGLKGQLLTLRTHFG

Legend:
anti-sCRFR2α serum = test: Immunohistochemistry, specificity by preincubation of antiserum with synthetic immunogen; settings: mouse brain sections; antiserum preincubated with immunogen
Description: Immunohistochemistry. Adult male C57B6J mice (Jackson Laboratories) and Sprague-Dawley albino rats (Harlan Sprague-Dawley) were anesthetized with chloral hydrate (350 mg/kg, ip) and perfused with Zamboni's fixative (Bittencourt et al., 1999), followed by 0-4 hr. post-fixation. Regularly spaced (1-in-4) series of 30 μm thick frontal sections throughout the brain were prepared for nickel-enhanced avidin-biotin-immunoperoxidase localization of sCRFR2α-ir using Vectastain Elite reagents (Vector Laboratories, Burlingame, Calif.). Primary sCRFR2α antisera were adsorbed against the carrier, affinity purified and used at a dilution of 1:2000. Specificity of immunostaining was evaluated using primary antisera preincubated overnight at 4° C. with 0-300 μM synthetic immunogen. Labeling was also evaluated in mutant mice deficient in either or both CRFRs (Smith et al., 1998; Bale et al. 2000). Detailed description of the fluorescence immunocytochemical analysis of COSM6 cells transfected with sCRFR2α can be found in the supporting text.
Further support for the specificity of labeling are observations that all immunolocalizations persisted in CRFR1- and/or CRFR2-deleted mice; note that the targeting construct used for generating each of the existing receptor-knockout lines would be expected to spare the sCRFR2α coding region (Smith et al., 1998; Timpl et al., 1998; Bale et al., 2000).

Astressin = target: T1, Astressin (Mus musculus, UniProt Q60748); test: Radioreceptor assay, competitive displacement of [125I-DTyr0]-astressin bound to sCRFR2α; format: binding; settings: range in parentheses in the next cell
T1 construct: A cDNA corresponding to amino acids 20-143 was generated by PCR; made in house; host or cells: E. coli
Description: (§1) Radioreceptor assays. The soluble protein, purified either from COS M6 cell media or E. coli was incubated in triplicate wells with [^125I-DTyr^O]-astressin and increasing concentration of unlabeled peptides as described (Perrin et al., 2003).
(§2) The interactions of the sCRFR2α with CRF family ligands were assessed by radioreceptor assay using competitive displacement of [^125I-D Tyr^o]-astressin bound to sCRFR2α.

mUcn2 = target: T2, mUcn2 (Mus musculus, UniProt Q60748); test: as above; format: binding; settings: range in parentheses
T2 construct: A cDNA corresponding to amino acids 20-143 was generated by PCR; made in house; host or cells: E. coli
Description: as §1, §2

rUcn1 = target: T3, rUcn1 (Mus musculus, UniProt Q60748); test: as above; format: binding; settings: range in parentheses in the next cell
T3 construct: A cDNA corresponding to amino acids 20-143 was generated by PCR; made in house; host or cells: E. coli
Description: as §1, §2

CRF = target: T4, CRF (Mus musculus, UniProt Q60748); test: as above; format: binding; settings: range in parentheses in the next cell
T4 construct: A cDNA corresponding to amino acids 20-143 was generated by PCR; made in house; host or cells: E. coli
Description: as §1, §2

mUcn3 = target: T5, mUcn3 (Mus musculus, UniProt Q60748); test: as above; format: binding
T5 construct: A cDNA corresponding to amino acids 20-143 was generated by PCR; made in house; host or cells: E. coli
Description: as §1, §2

[1] = tested on: activation by Ucn 1 of ERK1/2-p42, 44 in CATH.a cells; test: Extracellular receptor kinase 1/2 (ERK1/2) assay; format: cell-based; settings: Ucn 1 10 nM, sCRFR2α 0.4 or 4 nM, 5 min
Description: Luciferase reporter containing a fragment of the CRE promoter of the EVX1 gene was cotransfected into 293T cells with CRFR2α expression vectors. Luciferase activity was measured following treatment (4 h) with 0.0001-100 nM Ucn 1 or CRF, in the presence or absence of 0.1 nM sCRFR2α. Assays were normalized to cotransfected β-galactosidase activity. The representative means of six replicates from one experiment is shown in the graph. FIG. 5B, Equilibrated CATH.a cells were treated with Ucn 1 (10 nM) with or without sCRFR2α (0.4 or 4 nM). After 5 min of receptor stimulation, cell lysates were harvested and subjected to SDS-PAGE immunoblot analysis using phospho-ERK1/2-p42, 44 antibody and ERK2-p44 antibody. The ERK activation was calculated by normalizing the levels of phosphorylated ERK1/2-p42, 44 to total ERK2-p44. […]
Extracellular receptor kinase 1/2 (ERK1/2) assay. […] Cells were harvested immediately and analyzed for phosphorylated ERK1/2-p42, 44, as previously described (Chen et al., 2005).
(§3) To delineate the possible functions of sCRFR2α, the inventors studied its effects on signaling by CRF family ligands. […] Because the urocortins activate MAPK signaling (Brar et al., 2002), the inventors measured the ability of sCRFR2α to inhibit the activation by Ucn 1 of ERK1/2-p42, 44 in CATH.a cells, which endogenously express CRFR1 and CRFR2α.

[2] = tested on: cAMP response to Ucn 1 and CRF in HEK293T cells transfected with mouse CRFR2α; test: CRE-luciferase reporter (EVX1) assay of the cAMP response; format: cell-based; settings: 4 h, 0.0001-100 nM Ucn 1 or CRF, 0.1 nM sCRFR2α
Description: Luciferase reporter containing a fragment of the CRE promoter of the EVX1 gene was cotransfected into 293T cells with CRFR2α expression vectors. Luciferase activity was measured following treatment (4 h) with 0.0001-100 nM Ucn 1 or CRF, in the presence or absence of 0.1 nM sCRFR2α. Assays were normalized to cotransfected β-galactosidase activity. The representative means of six replicates from one experiment is shown in the graph. FIG. 5B, Equilibrated CATH.a cells were treated with Ucn 1 (10 nM) with or without sCRFR2α (0.4 or 4 nM). After 5 min of receptor stimulation, cell lysates were harvested and subjected to SDS-PAGE immunoblot analysis using phospho-ERK1/2-p42, 44 antibody and ERK2-p44 antibody. The ERK activation was calculated by normalizing the levels of phosphorylated ERK1/2-p42, 44 to total ERK2-p44. The representative of means of triplicates from one experiment is shown in the graph. *, P<0.05 vs. vehicle treatment, #, P<0.05 vs. Ucn 1 treatment, UD=undetected.
Transient transfections and luciferase assay. […]
as §3

[3] = tested on: rabbit anti-sCRFR2α (aa 113-143); test: sCRFR2α radioimmunoassay (RIA); format: binding; settings: anti-sCRFR2α at 1/300,000; synthetic sCRFR2α (113-143) as standard
Excerpt: FIGS. 3A-3C. A highly specific antiserum raised in rabbit using a synthetic peptide fragment encoding the unique C-terminal tail of mouse sCRFR2α protein (aa 113-143) was used to develop a sCRFR2α radioimmunoassay, used for immunoblot analysis and for immunocytochemistry. FIG. 3A is a western immunoblot of mouse sCRFR2α isolated from the medium of COS-M6 cells transiently transfected with sCRFR2αFLAG construct reacted with anti-sCRFR2α-(113-143) serum (left panel) or monoclonal M2 anti-FLAG (right panel). Lanes 1, 2, and 3 correspond to 0.1, 1.0, and 10 μl of sCRFR2α-FLAG extract, respectively. FIG. 3B, Displacement of [^125I]Tyr^113 sCRFR2α (aa 113-143) binding to rabbit anti-sCRFR2α (aa113-143) by synthetic sCRFR2α (aa 113-143) and by purified COS-M6 expressed sCRFR2α (aa 113-143)-FLAG. FIG. 3C, Immunofluorescence staining of COS-M6 cells transiently transfected with mouse sCRFR2α construct visualized with the anti-sCRFR2α (aa 113-143) serum followed by a Cy3-conjugated secondary antibody (FIG. 3C(b)). The slides were counterstained with DAPI to visualize both transfected and non transfected cells (FIG. 3C(a)).
Radio-Immuno Assays (RIA). […]

Molecule	concentration blocking immunolabeling throughout the brain on pre-incubation of the antiserum (anti-sCRFR2α serum) [µM]	Inhibitory binding constants, Ki, Astressin (Astressin)	Inhibitory binding constants, Ki, mUcn2 (mUcn2)	Inhibitory binding constants, Ki, rUcn1 (rUcn1)	Inhibitory binding constants, Ki, CRF (CRF)	Inhibitory binding constants, Ki, mUcn3 (mUcn3)	inhibition of induction of phosphorylated ERK by Ucn 1 [1]	inhibition of the cAMP response to Ucn 1 and CRF (CRE luciferase activity) [2]	EC50 in sCRFR2α RIA [3] [pg per tube]
sCRFR2α (113-143): synthetic peptide fragment encoding the unique C-terminal tail (aa 113-143) of mouse sCRFR2α, used as immunogen and RIA standard (YRIALIVNYLGHCVSVVALVAAFLLFLVLRS; soluble splice isoform sCRFR2alpha; UniProt Q60748 113-143, looked up, fragment)	≥ 30								
B1		nanomolar affinities	much lower	nanomolar affinities	nanomolar affinities	much lower	inhibits the induction of phosphorylated ERK; also recorded: interferes with the induction	inhibit, in a dose dependent manner; also recorded: interferes with the induction of cAMP	~5
